Molecular target: T1, GST-HSD17B7 fusion protein (human, UniProt P56937-1 1-341)
T1 construct: HSD17B7 (17β-hydroxysteroid dehydrogenase type 7), human, full-length cDNA amplified from HEK293T cDNA; 341 aa by the domain limits printed (1-229, 230-250, 251-341); also called 17β-Hydroxysteroid dehydrogenase type 7
T1 sequence (looked up): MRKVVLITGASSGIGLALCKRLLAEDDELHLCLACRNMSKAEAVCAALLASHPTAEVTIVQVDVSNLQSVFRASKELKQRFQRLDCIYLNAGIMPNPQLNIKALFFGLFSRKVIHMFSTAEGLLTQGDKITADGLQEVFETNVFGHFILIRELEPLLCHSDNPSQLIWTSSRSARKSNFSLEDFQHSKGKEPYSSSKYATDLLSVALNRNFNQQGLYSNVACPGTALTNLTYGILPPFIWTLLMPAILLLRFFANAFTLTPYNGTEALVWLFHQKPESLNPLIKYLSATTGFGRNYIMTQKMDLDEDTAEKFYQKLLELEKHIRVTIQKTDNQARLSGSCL
Test: pull-down; GST and GST-HSD17B7 immobilised on GSH resin, incubated with purified His-RER1 overnight at 4°C, washed with 0.3% PBST; Coomassie staining and western blot
Conditions: both partners purified

B1: RER1-His (natural protein, human (cDNA from HEK293T), UniProt O15258 1-196, looked up)
chain: MSEGDSVGESVHGKPSVVYRFFTRLGQIYQSWLDKSTPYTAVRWVVTLGLSFVYMIRVYLLQGWYIVTYALGIYHLNLFIAFLSPKVDPSLMEDSDDGPSLPTKQNEEFRPFIRRLPEFKFWHAATKGILVAMVCTFFDAFNVPVFWPILVMYFIMLFCITMKRQIKHMIKYRYIPFTHGKRRYRGKEDAGKAFAS
notes: RER1, full-length cDNA amplified from HEK293T cDNA; The legend prints RER1-His, the methods His-RER1; the pET-23b vector would add a C-terminal His tag (surmised); Detected by immunoblot of the His tag; also called His-RER1; ER retention receptor RER1
B1: binds.

From article PMC13233068, “HSD17B7 is required for the function of sensory hair cells by regulating cholesterol synthesis” (eLife, 2026)
